As usually defined, the Kd is a measure of binding affinity in units of concentration. What is called koff is the rate constant with which the complex falls apart. In general, kon refers to a measure of how fast the partners come together.

The source of these data is article PMC5360590 (EBioMedicine, 2017).

Test [1] concerns the target HA of A/duck/Memphis/546/74 (H11), expressed in cells from pCAGGS (Influenza A virus …, UniProt Q0A426, strain). Briefly: immunostaining of cells or tissue.
The target of test [2] is HA of A/duck/Australia/341/83 (H15), expressed in cells from pCAGGS (Influenza A virus …, UniProt Q82565, strain). Briefly: immunostaining of cells or tissue.
Test [3] deals with HA of A/gull/Maryland/704/77 (H13), expressed in cells from pCAGGS (Influenza A virus …, UniProt P13103, strain). Briefly: immunostaining of cells or tissue.
In test [4] the target is HA of A/chicken/Germany/N/49 (H10), expressed in cells from pCAGGS (Influenza A virus …, UniProt P12581, strain). Briefly: immunostaining of cells or tissue.
Test [5] deals with HA of A/mallard/Astrakhan/263/82 (H14), expressed in cells from pCAGGS (Influenza A virus …, UniProt P26136, strain). Kind of test: immunostaining of cells or tissue.
Test [6] has as its target HA of A/turkey/Ontario/6118/68 (H8), expressed in cells from pCAGGS (Influenza A virus …, UniProt P03456, strain). Kind of test: immunostaining of cells or tissue.
Test [7] addresses HA of A/turkey/Wisconsin/66 (H9), expressed in cells from pCAGGS (Influenza A virus …, UniProt P03457, strain). Kind of test: immunostaining of cells or tissue.
Test [8] addresses HA of A/Singapore/1/57 (H2), expressed in cells from pCAGGS (Influenza A virus A/Singapore/1/1957 …, UniProt Q67333, strain). Briefly: immunostaining of cells or tissue.
Test [9] deals with HA of A/duck/Czechoslovakia/56 (H4), expressed in cells from pCAGGS (Influenza A virus …, UniProt P19696, strain). Briefly: immunostaining of cells or tissue.
Test [10] has as its target HA of A/California/04/2009 (CA04; H1N1pdm09) on virus particles (Influenza A virus A/California/04/2009 …, UniProt C3W5S1, strain). Briefly: BLI. On the technique in general: Biolayer interferometry detects binding as a change in optical thickness at a sensor tip.
In test [11] the target is Recombinant soluble HA of subtype H1 (A/California/07/2009, H1N1pdm09) (Influenza A virus A/California/07/2009 …, UniProt C3W5X2, strain). Briefly: BLI.
In test [12] the target is Recombinant soluble HA of subtype H3 (A/Perth/16/2009, H3N2) (Influenza A virus A/Perth/16/2009 (H3N2), UniProt C6KNH7, strain). Kind of test: BLI.
The target in test [13] is Recombinant soluble HA of subtype H7 (A/Netherland/219/2003, H7N7) (Influenza A virus …, UniProt Q6VMK1). Kind of test: BLI.

B1: S9-1-10/5-1, recombinant monoclonal human IgG (IgG1, kappa) (antibody, V domains shown)
VH: QLHLQESGPGLLKPSATLSLTCTVSGGSMNNYYWSWVRQAPGKGLEWIGYIFHSGSTNYSPPLKSRVTISIDTATNQFFLRLNSVTAADTAVYYCARMSRGVFSSSRFFGLDVWGRGTAVAVSS
VL: EIVLTQSPATLSVSPGERATLSCRASQSVASNLAWYQQKPGQAPRLLISAASTRATDIPARFSGSGSGTEFTLTISSLQSEDFAVYYCQQYNNWLSFTFGPGTKVDMK
For B1, the binding result in [1], in test [2], in test [3], in test [4], in test [5] and in test [6] was “binds” in each case. Besides, the binding result in test [7], in test [8], in test [9] and in test [10] was “binds” throughout. The values for the Kd in [11], in test [12] and in [13] were 0.0085 nM, 34 nM and 0.9 nM, respectively. Moreover, the koff in test [11] was determined as 6.7e-06 s⁻¹; in [12] it was 0.002 s⁻¹; in test [13] it was 0.00037 s⁻¹. The kon came out at 790000 M⁻¹ s⁻¹ in test [11], 59000 M⁻¹ s⁻¹ in test [12] and 410000 M⁻¹ s⁻¹ in test [13].
